Source: article PMC2191977 (The Journal of Experimental Medicine, 1995)

What was measured:
Assay in all cases: flow cytometry on cells
B7 QD/LE (Q194L, D195E) = target: T1, B7 QD/LE (Q194L, D195E) (mouse, UniProt Q00609 38-306, Q194D195>LE)
T1 sequence (looked up): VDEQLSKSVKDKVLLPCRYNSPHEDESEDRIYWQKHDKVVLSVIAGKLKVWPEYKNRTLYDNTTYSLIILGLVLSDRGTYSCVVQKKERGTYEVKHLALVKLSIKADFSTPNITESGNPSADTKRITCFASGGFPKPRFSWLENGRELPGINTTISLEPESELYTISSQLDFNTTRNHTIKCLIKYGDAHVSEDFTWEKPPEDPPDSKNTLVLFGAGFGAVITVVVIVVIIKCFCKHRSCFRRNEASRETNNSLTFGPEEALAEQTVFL

B7 L179V = target: T2, B7 L179V (mouse, UniProt Q00609 38-306, L179V)
T2 sequence (looked up): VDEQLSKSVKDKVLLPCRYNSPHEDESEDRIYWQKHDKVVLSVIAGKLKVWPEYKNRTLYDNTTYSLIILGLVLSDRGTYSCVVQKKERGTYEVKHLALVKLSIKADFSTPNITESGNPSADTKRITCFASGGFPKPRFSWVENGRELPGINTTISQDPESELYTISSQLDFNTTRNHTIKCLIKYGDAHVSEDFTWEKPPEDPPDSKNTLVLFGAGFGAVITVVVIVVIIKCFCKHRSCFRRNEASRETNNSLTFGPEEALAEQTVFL

B7 LE/VD (L179V, E180D) = target: T3, B7 LE/VD (L179V, E180D) (mouse, UniProt Q00609 38-306, L179E180>VD)
T3 sequence (looked up): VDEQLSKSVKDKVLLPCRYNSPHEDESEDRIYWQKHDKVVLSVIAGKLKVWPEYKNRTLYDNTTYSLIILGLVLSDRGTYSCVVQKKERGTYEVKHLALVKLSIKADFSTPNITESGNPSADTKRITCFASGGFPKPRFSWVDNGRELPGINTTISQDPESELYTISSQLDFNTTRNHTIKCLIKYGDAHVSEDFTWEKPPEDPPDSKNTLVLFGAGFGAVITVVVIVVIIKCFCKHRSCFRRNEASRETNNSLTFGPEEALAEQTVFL

B7 Y201A = target: T4, B7 Y201A (mouse, UniProt Q00609 38-306, Y201A)
T4 sequence (looked up): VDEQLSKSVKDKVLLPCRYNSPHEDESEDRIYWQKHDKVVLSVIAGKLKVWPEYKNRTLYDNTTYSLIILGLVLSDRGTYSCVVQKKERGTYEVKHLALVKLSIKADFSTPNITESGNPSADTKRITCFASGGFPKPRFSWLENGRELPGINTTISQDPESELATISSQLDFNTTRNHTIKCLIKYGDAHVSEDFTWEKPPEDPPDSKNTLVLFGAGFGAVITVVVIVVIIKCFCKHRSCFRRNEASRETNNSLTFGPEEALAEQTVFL

B7 E180D = target: T5, B7 E180D (mouse, UniProt Q00609 38-306, E180D)
T5 sequence (looked up): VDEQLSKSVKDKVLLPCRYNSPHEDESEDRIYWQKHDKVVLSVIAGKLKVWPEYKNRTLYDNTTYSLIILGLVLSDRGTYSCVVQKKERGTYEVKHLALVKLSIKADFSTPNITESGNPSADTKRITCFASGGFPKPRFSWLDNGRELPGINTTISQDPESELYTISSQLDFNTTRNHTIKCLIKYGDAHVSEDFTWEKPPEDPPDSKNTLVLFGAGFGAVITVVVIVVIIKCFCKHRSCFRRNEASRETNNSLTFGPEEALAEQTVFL

murine B7 (wild type) = target: T6, murine B7 (wild type) (mouse, UniProt Q00609 38-306)
T6 sequence (looked up): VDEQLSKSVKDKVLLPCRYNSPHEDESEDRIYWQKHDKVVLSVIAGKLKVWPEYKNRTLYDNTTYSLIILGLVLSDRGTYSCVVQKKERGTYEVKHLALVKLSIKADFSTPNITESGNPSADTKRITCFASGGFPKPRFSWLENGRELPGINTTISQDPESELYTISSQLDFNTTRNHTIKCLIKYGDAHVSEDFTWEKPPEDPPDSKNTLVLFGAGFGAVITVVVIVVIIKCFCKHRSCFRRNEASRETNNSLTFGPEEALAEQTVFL

% wild-type B7 binding (normalised to anti-B7 mAb 10.16A.1) (B7 QD/LE (Q194L, D195E)): 11%
MF (mean fluorescence, control subtracted) (B7 QD/LE (Q194L, D195E)): 3 MF
% wild-type B7 binding (normalised to anti-B7 mAb 10.16A.1) (B7 L179V): 18%
MF (mean fluorescence, control subtracted) (B7 L179V): 12 MF
% wild-type B7 binding (normalised to anti-B7 mAb 10.16A.1) (B7 LE/VD (L179V, E180D)): 40%
MF (mean fluorescence, control subtracted) (B7 LE/VD (L179V, E180D)): 16 MF
% wild-type B7 binding (normalised to anti-B7 mAb 10.16A.1) (B7 Y201A): 3%
MF (mean fluorescence, control subtracted) (B7 Y201A): 1 MF
% wild-type B7 binding (normalised to anti-B7 mAb 10.16A.1) (B7 E180D): 68%
MF (mean fluorescence, control subtracted) (B7 E180D): 38 MF
% wild-type B7 binding (normalised to anti-B7 mAb 10.16A.1) (murine B7 (wild type)): 100%
B1: CD28Ig (Fc fusion, mouse, UniProt P31041 20-150, looked up)
chain: NKILVKQSPLLVVDSNEVSLSCRYSYNLLAKEFRASLYKGVNSDVEVCVGNGNFTYQPQFRSNAEFNCDGDFDNETVTFRLWNLHVNHTDIYFCKIEFMYPPPYLDNERSNGTIIHIKEKHLCHTQSSPKL
